Measured values reported in patent publication US8436140B2, “Natriuretic peptide-mediated imaging of atherosclerotic plaque” (priority 2008, dated 2013).
Positions of bridges follow the written chain, without caps; N, C: chain ends. Residues, ends and D or L forms follow the SMILES beside them. *: point of attachment. DOTA = O=C(O)CN1CCN(CC(=O)O)CCN(CC(=O)*)CCN(CC(=O)O)CC1

Columns and labels:
[1] = test system: extracellular matrix proteins such as collagen and proteoglycans; test: 3T MRI of atherosclerotic lesion with plaque-targeting contrast agent; assay type: in vivo, rabbit; conditions: 0.5 μmol/kg, 1 h before scan, TP 1
Description: The presence of atherosclerotic lesions in the rabbits was confirmed by 3T MRI 1 hour after administration of a non-receptor specific plaque-targeting contrast agent ([…], 0.5 μmol/kg body weight, Schering AG, Germany). […] For scanning, the rabbit was placed supine into a plastic bed. Three micropipette tubes filled with 0.5 mL Gadofluorine M (Bayer Schering Pharma AG, Berlin) served as fiducial markers, and were taped into position on the bed. At the beginning of the PET study, these tubes were drained of the Gadofluorine by syringe, and refilled with 0.5 mL of ^64Cu to serve as the PET fiducials. These helped to “co-localize” the plaque regions between the two image modalities.
In this example, a MR T1 W coronal image of a typical atherosclerotic lesion in the femoral artery of a rabbit 4 weeks after air dessication-induced injury (TP 1) is shown (FIG. 6). Gadofluorine M (0.5 μmol/kg body weight) was given 1 h before the scan. […] MRI confirmed the presence of a thickened neointima in the injured vessel characteristic of the atherosclerotic-like plaques induced in this model.

[2] = in vivo; conditions: rabbit, iv, 20 MBq, total radioactivity
Description: The blood clearance studies were performed in normal rabbits (n=4) to evaluate the pharmacokinetics of tracer in vivo. About 20 MBq of ^64Cu-DOTA-C-ANF was injected intravenously into the left ear of rabbit, and blood sample (0.2 mL) was drawn from the contralateral ear over the period of 1 h (1 min, 3 min, 5 min, 10 min, 20 min, 40 min and 60 min). The activity of the blood samples were counted in gamma counter and presented in percent injected dose per gram (ID %/g). […] (FIG. 7). This tracer therefore is a highly sensitive means by which to detect a trace amount of ^64Cu-DOTA-C-ANF in the atherosclerotic animal model

Row | SMILES | contrast agent at injured femoral artery (MR T1W image) [1] | contrast agent uptake in control artery (MR T1W image) [1] | tissue uptake at 1 min [2] | tissue uptake at 0.05 h [2] | tissue uptake at 1 h [2]
1 | CC(C(=O)NCC(=O)NCCCC[C@H](NC(=O)CO[C@H]1O[C@H](CO)[C@@H](O)[C@H](O)[C@@H]1O)C(=O)N1CCN(S(=O)(=O)C(F)(F)C(F)(F)C(F)(F)C(F)(F)C(F)(F)C(F)(F)C(F)(F)C(F)(F)F)CC1)N1CCN(CC(=O)O)CCN(CC(=O)O)CCN(CC(=O)O)CC1 (some centres unmarked) [Gadofluorine M] | binding | weak uptake |  |  | 
2 | CC[C@H](C)[C@@H]1NC(=O)[C@H](CCCNC(=N)N)NC(=O)[C@H](CC(=O)O)NC(=O)[C@H]([C@@H](C)CC)NC(=O)[C@H](CCCNC(=N)N)NC(=O)CNC(=O)CNC(=O)[C@H](Cc2ccccc2)NC(=O)[C@@H](NC(=O)[C@H](CO)NC(=O)[C@H](CO)NC(=O)[C@H](CCCNC(=N)N)NC(=O)CN2CCN(CC(=O)O)CCN(CC(=O)O)CCN(CC(=O)O)CC2)CSSC[C@@H](C(N)=O)NC(=O)[C@H](C)NC(=O)CNC1=O [^64Cu-DOTA-C-ANF, metal not drawn] ({DOTA}-RSSCFGGRIDRIGAC-NH2; disulfide 4-15) |  |  | 0.22 %ID/g | 0.1 %ID/g | 0.02 %ID/g
